From paper PMC4351760

Molecular target: R276S/M395R GltPh mutant (Pyrococcus horikoshii) (UniProt O59010)
Test: crystal structure

“R276S/M395R GltPh mutant (from UniProt O59010 1-417) (natural protein)” showed a stoichiometry N of 3.
